For experiment [1], the target named is Xenopus laevis StrepII-FANCD2. The experiment can be described thus: Biolayer interferometry (BLItz). To be noted: StrepII-FANCD2-loaded biosensors in 20 ng/mL solution; FANCI 62.5-1000 nM.
Experiment [2] has as its target T1, Xenopus laevis StrepII-FANCD2 (Xenopus laevis).
T1 chain: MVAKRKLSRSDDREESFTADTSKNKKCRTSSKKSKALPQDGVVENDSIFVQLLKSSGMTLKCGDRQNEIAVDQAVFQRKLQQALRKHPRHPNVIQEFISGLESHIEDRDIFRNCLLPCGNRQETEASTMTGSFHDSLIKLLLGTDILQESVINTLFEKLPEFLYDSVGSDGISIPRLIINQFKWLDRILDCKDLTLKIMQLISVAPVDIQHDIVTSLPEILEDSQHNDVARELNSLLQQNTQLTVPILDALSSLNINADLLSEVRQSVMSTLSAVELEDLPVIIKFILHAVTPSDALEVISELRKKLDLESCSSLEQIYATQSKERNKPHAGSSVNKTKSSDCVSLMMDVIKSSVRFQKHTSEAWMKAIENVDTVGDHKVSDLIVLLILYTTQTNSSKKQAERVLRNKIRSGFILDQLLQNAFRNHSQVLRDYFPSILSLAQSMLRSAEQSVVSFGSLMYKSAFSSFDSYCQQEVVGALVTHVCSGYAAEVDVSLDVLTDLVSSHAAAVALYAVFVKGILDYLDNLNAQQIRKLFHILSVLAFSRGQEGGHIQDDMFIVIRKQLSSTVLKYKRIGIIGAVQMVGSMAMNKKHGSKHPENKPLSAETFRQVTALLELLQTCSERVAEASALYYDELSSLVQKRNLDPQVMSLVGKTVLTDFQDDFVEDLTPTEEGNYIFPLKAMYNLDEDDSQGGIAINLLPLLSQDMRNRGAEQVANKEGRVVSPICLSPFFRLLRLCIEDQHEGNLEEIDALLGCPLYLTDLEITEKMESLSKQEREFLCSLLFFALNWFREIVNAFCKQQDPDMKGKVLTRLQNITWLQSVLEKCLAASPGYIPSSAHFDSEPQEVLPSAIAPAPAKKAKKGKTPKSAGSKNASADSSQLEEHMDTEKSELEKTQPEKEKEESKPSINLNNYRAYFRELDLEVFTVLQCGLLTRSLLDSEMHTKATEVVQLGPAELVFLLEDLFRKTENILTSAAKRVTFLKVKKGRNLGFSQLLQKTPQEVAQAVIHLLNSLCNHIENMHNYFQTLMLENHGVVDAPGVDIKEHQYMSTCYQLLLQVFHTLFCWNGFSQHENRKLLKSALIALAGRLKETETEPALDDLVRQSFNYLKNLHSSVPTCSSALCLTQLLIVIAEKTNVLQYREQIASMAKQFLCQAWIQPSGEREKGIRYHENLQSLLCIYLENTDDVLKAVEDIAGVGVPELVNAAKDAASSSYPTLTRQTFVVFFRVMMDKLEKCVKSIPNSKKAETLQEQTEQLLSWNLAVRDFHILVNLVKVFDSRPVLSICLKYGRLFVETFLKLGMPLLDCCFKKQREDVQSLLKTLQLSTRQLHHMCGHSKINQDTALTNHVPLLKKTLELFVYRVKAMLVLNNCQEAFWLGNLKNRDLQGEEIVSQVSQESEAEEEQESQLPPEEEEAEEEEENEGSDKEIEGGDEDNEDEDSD
The experiment is described as follows: Biolayer interferometry (BLItz). To be noted: StrepII-FANCD2-loaded biosensors in 20 ng/mL solution; FANCI 62.5-1000 nM.

The target of experiment [3] is T2, Xenopus laevis StrepII-FANCD2.
T2 chain: T1 chain
The experiment can be described thus: Biolayer interferometry (BLItz). As to conditions: chain shown with the change; StrepII-FANCD2-loaded biosensors in 20 ng/mL solution; FANCI 62.5-1000 nM.

Experiment [4] deals with T1, Xenopus laevis StrepII-FANCD2. The experiment is described as follows: BLI.
The target is the same in experiment [5]. The experiment is described as follows: BLI.

Numbering of substitutions follows the chain as printed. Numbers in names are those of the source.

For the molecule “Xenopus laevis Flag-FANCI wild type S557D; S560D; S566D; S597D; S618D; S630D”, the kon in experiment [1] stood at 39000 M⁻¹ s⁻¹.

B1: Xenopus laevis Flag-FANCI wild type S557A; S560A; S566A; S597A; S618A; S630A (protein)
chain: MDQKILSLAAEEQNDGLQSYLQNLKETELSEIITKHAVKGKDCGALLRGVFKGSPCSHDVAVRRRLAVYRHCIQLVESGDLQREVASEIMGLLMLEVHHFPGASLIELANLFADAVKAGTLSNGKSLDLFPTVLTALSSKESLAYGKGELTGEEFKKQLINSLCSSRWDPQSVIFLTSMFRDVSLSAEELQFVVEKVLRMLSKLDLQEMPPLVYQLLLLSAKGSKKNIVEGIITIFNDLDQKQLVQQENSESLDLEDATIPQDQLHHVEGTIILHIVFAIKLDQELGRELLKYLKAGQQGDSSKILCPFSAALLLSVSRIHRFQEQVFDFLKSTILRDYKDLQFHQSSKFLQDLVPQPVCVSSILLETVKNSVYGWDHVTQGLVELGFILMDSFGPKAAFGNKVVELISVHSRTPSQQACQLGSRILLETFKVHEPIRSEILEQVLNRVITKAATPVTHFIDLLSDIVVSAPLILQNSSSKVTEAFDHLSFLPLTTVQGLLKAVQPLLKISMSMRDSLILVLRKAMFSSQIDARKSAVAGFLLLLRNFKVLGSLSSAQCAQAIGAAQIQVDVHMRYNAAANEAFCLEILGSLRRCLAQQADVRLMLYEGFYDVLRRNAQLASSVMQTLLAQLKRYYEPEPDLLPPLKLEGCITAQGDHIFLQEPLAHLLCCIHHCLQWYKSSLQQHRNPDEDDDDDDQTGCQQDLNDIMESITRRMIKCDLEDFELDKSADFSLASGVGVKNNIYAVLVMGICEVLIEYNFIIANFSKSKFEDILGLFKCCSKLSDILKEKAAKGRQPGNNKTARSLISMTFVSTLLTALFRDSTRSHEESLSILRANVDFMRYSVCVALQKIQQLEETGVTDGPDGQNSEKMFRSLCEITRVLMWRYTSIPAAAENPGKKDKGKTISLLCLEGLLRVFNTVQQRYPSKIPQFLTALDALGDEDEEGSREINVTEKAAFQIKQFQRSLINQLSGGEDDFNSKEALLLVSILSTLSRLLAPSSQQFVQMLSWTVKICKETNIEDVQFCKGIMNLLFSLHVQFKSPVSVLRELCQDIHGHLGDIDQDIEVEKQSHFATVSLKTAAPTVTLLVLGQAAKVLEEVDWLIIKLKGLLGSEKLSTEDLTQTSNARVPIEKAIILQLGTLLTACHELVQTALPAGSCTDTLLKELAKMYTILTSVVKYYLQICSSHGGQISARLEKLVKLSGSHLTPQCYAFITYVQNIHSESLSLAAEKKKKKKEEALTVTSAKILRDTKPIPNLIFAIEQYEKFLIHLSKKSKVNLMQYMKLSTSRDFRINAATLDAALQEKGSEDEENEPDNEQAVTEEESQEPKKKRRRK
In turn, B1 registered a kon in experiment [2] of 11000 M⁻¹ s⁻¹. In experiment [3], this molecule displayed a dissociation constant Kd of 10.1 nM and a koff of 9e-05 s⁻¹.

B2: Xenopus laevis Flag-FANCI wild type S557D; S560D; S566D; S597D; S618D; S630D (protein)
chain: B1 chain with A557D, A560D, A566D, A597D, A618D, A630D
In experiment [3], B2 registered a Kd of 136 nM and a koff of 0.0061 s⁻¹.

B3: Xenopus laevis Flag-FANCI S6D phosphomimic mutant (natural protein)
chain: B1 chain with Y20C, S302T, D338G, A557D, A560D, A566D, A597D, A618D, A630D, C781Y
modifications: Full length assumed, since construct limits are not printed. Flag tag left out. The L homeolog is assumed; if it has no entry or the checks fail, try fanci.S or fanci. Expressed in Hi5 insect cells.
In experiment [4], B3 displayed a Kd of 136 nM. Further, in experiment [5], the koff was found to be 0.0061 s⁻¹.

For the origin of these results see article PMC7010609 (2020).
